{
  "source": "patent US9545446B2",
  "about": "“Agonists of guanylate cyclase and their uses” (priority 2013, dated 2017)",
  "key": {"[1]": {"target": "intestinal GC-C receptor (Homo sapiens, UniProt P25092)", "sequence (P25092 24-1073)": "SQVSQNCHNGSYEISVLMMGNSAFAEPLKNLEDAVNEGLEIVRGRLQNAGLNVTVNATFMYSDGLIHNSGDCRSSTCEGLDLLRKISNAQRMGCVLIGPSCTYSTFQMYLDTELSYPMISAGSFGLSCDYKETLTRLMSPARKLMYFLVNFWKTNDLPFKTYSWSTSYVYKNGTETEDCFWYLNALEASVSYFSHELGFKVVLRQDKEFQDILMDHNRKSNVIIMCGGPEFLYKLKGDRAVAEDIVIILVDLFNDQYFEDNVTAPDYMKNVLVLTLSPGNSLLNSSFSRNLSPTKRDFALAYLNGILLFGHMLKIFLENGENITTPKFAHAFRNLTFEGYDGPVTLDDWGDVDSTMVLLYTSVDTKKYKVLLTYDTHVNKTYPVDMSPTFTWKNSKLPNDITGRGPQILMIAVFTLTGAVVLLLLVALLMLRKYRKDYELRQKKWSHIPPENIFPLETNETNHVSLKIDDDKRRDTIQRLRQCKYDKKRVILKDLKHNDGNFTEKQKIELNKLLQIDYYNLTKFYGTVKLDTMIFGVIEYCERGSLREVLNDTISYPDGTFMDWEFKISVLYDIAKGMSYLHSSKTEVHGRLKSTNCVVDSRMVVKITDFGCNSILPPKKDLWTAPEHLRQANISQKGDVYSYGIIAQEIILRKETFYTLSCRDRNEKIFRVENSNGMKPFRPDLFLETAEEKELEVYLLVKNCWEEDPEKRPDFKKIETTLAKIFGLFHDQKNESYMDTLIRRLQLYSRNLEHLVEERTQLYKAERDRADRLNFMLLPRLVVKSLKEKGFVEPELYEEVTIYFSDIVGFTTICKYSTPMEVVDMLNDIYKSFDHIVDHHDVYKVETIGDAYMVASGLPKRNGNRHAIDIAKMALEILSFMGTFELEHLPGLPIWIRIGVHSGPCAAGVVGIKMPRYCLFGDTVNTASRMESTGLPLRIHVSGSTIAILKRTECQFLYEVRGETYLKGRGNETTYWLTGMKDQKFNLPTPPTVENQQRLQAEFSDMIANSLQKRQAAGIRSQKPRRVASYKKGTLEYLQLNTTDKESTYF", "assay": "in vitro and in vivo pharmacology studies (GC-C agonism)", "conditions": "several in vitro and in vivo pharmacology studies"}, "[2]": {"test_system": "healthy volunteers", "assay": "Phase I multiple ascending dose study of SP-333", "format": "in vivo, human", "method": "[…] The maximum tolerated dose was 30 mg with 60 mg deemed an intolerable dose due to 2 instances of fecal incontinence or soiling in the 7 patients dosed with 60 mg SP-333."}, "[3]": {"test_system": "healthy subjects", "assay": "Phase I single ascending oral dose study of SP-333", "format": "in vivo, human", "method": "Two phase 1 clinical studies with SP-333 have been completed to date and a Phase 2 trial in OIC is in progress. In the Phase I single ascending oral dose study, conducted in 64 healthy subjects, the following doses of SP-333 were tested: 0.1, 0.3, 1, 3, 10, 20, 30, and 60 mg. […] Diarrhea was the most common adverse event and was generally dose-related, with 1 mg being the threshold dose. The time to onset of diarrhea was variable but tended to decrease with increasing doses from 4 to 2 hours or less. The number of subjects with watery bowel movement rose from none (<3 mg) to 2 of 6 (3, 10 and 20 mg) to 4 of 6 (30 mg). The majority of these episodes was mild, occurred once, and was associated with urgency and in some cases mild cramping. There were no SAEs."}, "[4]": {"assay": "Phase 1 pharmacokinetic sampling (systemic absorption after oral dose)", "format": "in vivo, human", "conditions": "oral doses <10 mg", "method": "Phase 1 pharmacokinetic sampling indicated no detectable (limit of quantitation=1 ng/mL) systemic absorption of SP-333 following oral doses <10 mg; it is therefore highly unlikely that a single oral dose of 6 mg SP-333 will result in any systemic exposure."}, "[5]": {"test_system": "patients scheduled to undergo colonoscopy", "assay": "Phase 1 pilot clinical study: oral SP-333 as adjunct to SUPREP Bowel Prep Kit for cleansing of the colon prior to colonoscopy", "format": "in vivo, human", "method": "This clinical study outlined above was designed to assess the effect of a single oral dose of 6 mg SP-333 when given concurrently with a standard pre-colonoscopy bowel prep—the SUPREP® Bowel Prep Kit (Braintree Laboratories, Braintree, Mass. 02185, USA). The investigator is a highly experienced gastroenterologist and oversaw all study activities and performed all colonoscopies per their usual routine.\n• 1. Take Study Drug approximately 30 minutes before the start of the first bottle of the bowel prep kit. • 2. Take a 6 ounce bottle of study preparation and pour the entire contents into the mixing cup provided. Fill the cup with cool water to the fill line (16 ounces) and drink the entire cup of solution. • 3. Drink two (2) 16 ounce glasses of WATER over the next hour. Fill the mixing cup with water up to the fill line (16 ounces) and drink the entire glass. Morning of Colonoscopy\nAt least 3 hours prior to colonoscopy: • 1. Take the second 6 ounce bottle of study preparation and pour the entire contents into the mixing cup provided. Fill the cup with cool water to the fill line (16 ounces) and drink the entire cup of solution. • 2. Drink two (2) 16 ounce glasses of WATER over the next hour. Fill the mixing cup with water up to the fill line (16 ounces) and drink the entire glass. • Patient must complete the solution and additional water at least 2 hours before colonoscopy.\nThe primary endpoint of this study was bowel preparation treatment success as determined by the investigator (bowel preparation will be rated by the Investigator as “Excellent”, “Good”, “Fair” or “Poor”). A successful bowel preparation treatment is defined as bowel cleansing graded either “Excellent” or “Good” by the investigator (See Table 10).\nPatients were consented for the study at the same time that informed consent was obtained for the colonoscopy procedure. Each successfully consented & recruited patient took a single dose of 6 mg SP-333 in the evening before the colonoscopy—approximately 30 minutes prior to ingestion of the first bottle of the SUPREP® Bowel Prep Kit (See Section entitled “Patient Instructions for SUPREP® Bowel Prep Kit” above).\nBowel preparation treatment success rate was described; formal hypothesis testing was not performed.\nThe volume of intra-procedural water required to improve visualization, the proximal insertion depth of the colonoscope and whether or not the right colon and cecum were completely visualized were recorded in the Colonoscopy Procedure Record."}, "[6]": {"conditions": "6 mg oral daily dose, healthy volunteers"}, "[7]": {"conditions": "6 mg SP-333 added to standard colonoscopy cleansing preparation (SUPREP), 9 patients"}},
  "note": "Bridges are numbered along the chain shown (N, C = ends). Where no end group is shown, it is not given here. [ ]: non-standard residue; d: D form.",
  "data": [
    {"substance": "dAsn^1-Asp^2-Glu^3-Cys^4-Glu^5-Leu^6-Cys^7-Val^8-Asn^9-Val^10-Ala^11-Cys^12-Thr^13-Gly^14-Cys^15-dLeu^16 ([dN]DECELCVNVACTGC[dL]; disulfide 4-12, 7-15) [SP-333]", "values": [
      {"measurement": "agonism of the intestinal GC-C receptor", "setting": "[1]", "value": "potent agonist"},
      {"measurement": "additional AEs", "setting": "[2]; [6]", "value": "No additional AEs of note"},
      {"measurement": "effect of dose in Phase 1 studies (basis of dose selection)", "setting": "[2]; [6]", "value": "self-limited diarrhea (watery stools) with mild urgency"},
      {"measurement": "instances of fecal incontinence or soiling", "setting": "[2]; 60 mg daily for 7 days, 7 patients dosed", "value": 2},
      {"measurement": "changes in hematology, clinical chemistry, or urinalysis parameters", "setting": "[2]; any dose level", "value": "no clinically meaningful changes"},
      {"measurement": "changes in vital sign or ECG parameters", "setting": "[2]; any dose level", "value": "no clinically meaningful changes"},
      {"measurement": "overall safety and tolerability", "setting": "[2]; daily 0.3, 1, 3, 10, 30 mg for 14 days or 60 mg for 7 days, 89 subjects", "value": "generally safe and well-tolerated"},
      {"measurement": "maximum tolerated dose", "setting": "[2]; daily doses for 14 days", "value": 30, "unit": "mg"},
      {"measurement": "intolerable dose", "setting": "[2]; daily for 7 days, due to fecal incontinence or soiling", "value": 60, "unit": "mg"},
      {"measurement": "most commonly reported TEAEs (treatment-emergent adverse events)", "setting": "[2]; mild or moderate intensity", "value": "gastrointestinal disorders (primarily diarrhea and defecation urgency)"},
      {"measurement": "subjects with a serious adverse event (SAE)", "setting": "[2]; multiple ascending dose", "value": "no subject"},
      {"measurement": "subjects withdrawn from the study due to a TEAE", "setting": "[2]; multiple ascending dose", "value": "no subject"},
      {"measurement": "severity of the majority of watery bowel movement episodes", "setting": "[3]; occurred once, associated with urgency, in some cases mild cramping", "value": "mild"},
      {"measurement": "changes in clinical laboratory test results, ECG or vital signs", "setting": "[3]; single ascending oral dose", "value": "No clinically meaningful changes"},
      {"measurement": "serious adverse events (SAEs)", "setting": "[3]; single ascending oral dose", "value": "no SAEs"},
      {"measurement": "threshold dose for diarrhea", "setting": "[3]; single ascending oral dose", "value": 1, "unit": "mg"},
      {"measurement": "most common adverse event", "setting": "[3]; single ascending oral dose, generally dose-related", "value": "Diarrhea"},
      {"measurement": "number of subjects with watery bowel movement", "setting": "[3]; single oral dose 30 mg", "value": "4 of 6"},
      {"measurement": "number of subjects with watery bowel movement", "setting": "[3]; single oral dose 3, 10 and 20 mg", "value": "2 of 6"},
      {"measurement": "number of subjects with watery bowel movement", "setting": "[3]; single oral dose <3 mg", "value": "none"},
      {"measurement": "overall safety and tolerability", "setting": "[3]; single oral doses 0.1, 0.3, 1, 3, 10, 20, 30, 60 mg, 64 healthy subjects", "value": "safe and well tolerated"},
      {"measurement": "time to onset of diarrhea", "setting": "[3]; variable, tended to decrease with increasing doses, to 2 hours or less", "value": "4 to 2", "unit": "hours"},
      {"measurement": "systemic absorption (not detectable; limit of quantitation)", "setting": "[4]", "value": "< 1", "unit": "ng/mL"},
      {"measurement": "colonoscopy procedure outcome", "setting": "[5]; [7]", "value": "safe and successful procedure"},
      {"measurement": "visualization of the colon as observed by the gastroenterologist", "setting": "[5]; [7]", "value": "better visualization of the entire colon"},
      {"measurement": "tolerability of combination with standard colonoscopy preparation", "setting": "[5]; single oral 6 mg SP-333 evening before colonoscopy plus SUPREP Bowel Prep Kit, 9 patients", "value": "very well"},
      {"measurement": "ease of preparation as judged by subjects with previous colonoscopies", "setting": "[5]; versus past colon cleansing preparation without SP-333", "value": "much easier"}
    ]}
  ]
}
